Measured values taken from patent EP4782466A1, “FUSION PROTEIN FOR INACTIVATING CORONAVIRUS AND USE THEREOF” (priority 2023, dated 2025).

Legend:
Assay in all cases: cell-based or functional assay
[1] = molecular target: S protein of SARS-CoV-2 Omicron BA.5 (SARS-CoV-2 BA.5)
[2] = molecular target: S protein of SARS-CoV-2 Omicron BQ.1 (SARS-CoV-2 BQ.1)
[3] = molecular target: S protein of SARS-CoV-2 Lambda (SARS-CoV-2 Lambda)
[4] = molecular target: S protein of SARS-CoV-2 Omicron BF.7 (SARS-CoV-2 BF.7)
[5] = molecular target: S protein of SARS-CoV-2 Omicron BA.4.6 (SARS-CoV-2 BA.4.6)
[6] = molecular target: S protein of SARS-CoV-2 Omicron BA.1 (SARS-CoV-2 BA.1)
[7] = molecular target: S protein of SARS-CoV-2 Omicron BA.2.9 (SARS-CoV-2 BA.2.9)
[8] = molecular target: S protein of SARS-CoV-2 Omicron BA.2.75 (SARS-CoV-2 BA.2.75)
[9] = molecular target: S protein of SARS-CoV-2 Alpha (B.1.1.7) (SARS-CoV-2 Alpha (B.1.1.7))
[10] = molecular target: S protein of SARS-CoV-2 Omicron BA.2.2 (SARS-CoV-2 BA.2.2)
[11] = molecular target: S protein of SARS-CoV-2 Omicron BA.2 (SARS-CoV-2 BA.2)
[12] = molecular target: S protein of SARS-CoV-2 Omicron BA.2.12.1 (SARS-CoV-2 BA.2.12.1)
[13] = molecular target: S protein of SARS-CoV-2 Omicron XBB (SARS-CoV-2 XBB)
[14] = molecular target: S protein of SARS-CoV-2 Gamma (P.1) (SARS-CoV-2 Gamma (P.1))
[15] = molecular target: S protein of SARS-CoV-2 Beta (B.1.351) (SARS-CoV-2 Beta (B.1.351))
[16] = molecular target: S protein of SARS-CoV-2 Delta (B.1.617.2) (SARS-CoV-2 Delta (B.1.617.2))
[17] = molecular target: S protein of SARS-CoV-2 Omicron BA.3 (SARS-CoV-2 BA.3)

Substance	IC50, inhibition of pseudovirus infection (Caco-2, luciferase) [1] [nM]	IC50, inhibition of pseudovirus infection (Caco-2, luciferase) [2] [nM]	IC50, inhibition of pseudovirus infection (Caco-2, luciferase) [3] [nM]	IC50, inhibition of pseudovirus infection (Caco-2, luciferase) [4] [nM]	IC50, inhibition of pseudovirus infection (Caco-2, luciferase) [5] [nM]	IC50, inhibition of pseudovirus infection (Caco-2, luciferase) [6] [nM]	IC50, inhibition of pseudovirus infection (Caco-2, luciferase) [7] [nM]	IC50, inhibition of pseudovirus infection (Caco-2, luciferase) [8] [nM]	IC50, inhibition of pseudovirus infection (Caco-2, luciferase) [9] [nM]	IC50, inhibition of pseudovirus infection (Caco-2, luciferase) [10] [nM]	IC50, inhibition of pseudovirus infection (Caco-2, luciferase) [11] [nM]	IC50, inhibition of pseudovirus infection (Caco-2, luciferase) [12] [nM]	IC50, inhibition of pseudovirus infection (Caco-2, luciferase) [13] [nM]	IC50, inhibition of pseudovirus infection (Caco-2, luciferase) [14] [nM]	IC50, inhibition of pseudovirus infection (Caco-2, luciferase) [15] [nM]	IC50, inhibition of pseudovirus infection (Caco-2, luciferase) [16] [nM]	IC50, inhibition of pseudovirus infection (Caco-2, luciferase) [17] [nM]
AL7E protein (ACE2-linker-EK1 fusion protein with (GGGGS)7 linker)	0.31	1.14	0.27	0.93	0.56	0.14	0.21	1.04	0.21	0.28	0.12	0.23	0.94	0.25	0.24	0.31	0.11
EK1 polypeptide	568	136	995	584	473	70.5	199	331	268	162	297	342	233	277	257	150	136
